{"source": "patent US20130012436A1", "about": "(Bristol-Myers Squibb, published 2013)", "binders": {"B1": {"name": "SABA1.2 (designed binder)", "chain": "MGVSDVPRDLEVVAATPTSLLISWHSYYEQNSYYRITYGETGGNSPVQEFTVPYSQTTATISGLKPGVDYTITVYAVYGSKYYYPISINYRTEIEDEDEDEDED", "notes": "core 1 with (ED)5 extension"}, "B2": {"name": "ATI001016 (designed binder)", "chain": "MGVSDVPRDLEVVAATPTSLLISWGHYPLHVRYYRITYGETGGNSPVQEFTVPSRKYTATISGLKPGVDYTITVYAVTYYKEANYREIPISINYRTGSGC", "modifications": "pegylated at the C-terminal GSGC linker (Cys)", "notes": "not shown: his-tag"}, "B3": {"name": "ATI001047 (designed binder)", "chain": "B2 chain with S54P, K56S, Y57H, K81A, E82Q, A83E, R86K", "modifications": "pegylated at the C-terminal GSGC linker (Cys)"}, "B4": {"name": "ATI001045 (designed binder)", "chain": "B2 chain", "modifications": "pegylated at the C-terminal GSGC linker (Cys)"}}, "key": {"rhesus serum albumin [1]": {"target": "T1, rhesus serum albumin (rhesus, UniProt Q28522 17-600)", "T1 construct": "also called RhSA", "T1 sequence (Q28522 17-600 limits assumed)": "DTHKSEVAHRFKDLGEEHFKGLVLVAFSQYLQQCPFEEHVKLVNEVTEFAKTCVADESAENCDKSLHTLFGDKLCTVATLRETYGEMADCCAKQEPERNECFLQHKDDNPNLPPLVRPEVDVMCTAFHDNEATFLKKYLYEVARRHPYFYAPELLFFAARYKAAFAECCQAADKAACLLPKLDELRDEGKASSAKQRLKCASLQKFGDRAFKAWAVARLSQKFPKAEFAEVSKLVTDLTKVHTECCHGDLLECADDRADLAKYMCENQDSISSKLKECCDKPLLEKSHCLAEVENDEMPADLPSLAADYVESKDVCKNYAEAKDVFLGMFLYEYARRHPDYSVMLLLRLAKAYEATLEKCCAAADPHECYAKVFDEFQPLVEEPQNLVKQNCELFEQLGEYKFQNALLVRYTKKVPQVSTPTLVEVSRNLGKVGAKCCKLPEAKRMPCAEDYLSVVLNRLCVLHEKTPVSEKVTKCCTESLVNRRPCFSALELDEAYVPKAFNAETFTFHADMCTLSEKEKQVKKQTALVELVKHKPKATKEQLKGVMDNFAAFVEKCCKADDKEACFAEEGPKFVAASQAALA", "assay": "SPR, HBS-P buffer, 37 C"}, "human serum albumin [2]": {"target": "T2, human serum albumin (human, UniProt P02768 25-609)", "T2 construct": "also called HSA", "T2 sequence (P02768 25-609 limits assumed)": "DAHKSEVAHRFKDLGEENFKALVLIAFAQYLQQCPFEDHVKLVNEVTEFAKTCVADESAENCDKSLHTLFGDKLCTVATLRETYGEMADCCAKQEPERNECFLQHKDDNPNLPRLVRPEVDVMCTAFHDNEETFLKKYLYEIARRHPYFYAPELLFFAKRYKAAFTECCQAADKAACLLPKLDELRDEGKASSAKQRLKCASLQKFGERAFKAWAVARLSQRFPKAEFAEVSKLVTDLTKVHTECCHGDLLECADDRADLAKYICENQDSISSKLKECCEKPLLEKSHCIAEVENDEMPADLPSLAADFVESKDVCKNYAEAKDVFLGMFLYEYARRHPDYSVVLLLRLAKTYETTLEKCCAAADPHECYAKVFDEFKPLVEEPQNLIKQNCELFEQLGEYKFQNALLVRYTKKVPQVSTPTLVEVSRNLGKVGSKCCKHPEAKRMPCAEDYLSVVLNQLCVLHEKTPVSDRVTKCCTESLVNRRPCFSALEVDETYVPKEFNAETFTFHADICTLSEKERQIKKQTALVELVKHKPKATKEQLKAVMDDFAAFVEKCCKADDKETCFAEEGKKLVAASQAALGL", "assay": "SPR, HBS-P buffer, 37 C"}, "rhesus serum albumin [3]": {"target": "T1, rhesus serum albumin", "assay": "SPR, HBS-P buffer, 25 C"}, "human serum albumin [4]": {"target": "T2, human serum albumin", "assay": "SPR, HBS-P buffer, 25 C"}, "murine serum albumin": {"target": "T3, murine serum albumin (mouse, UniProt P07724 25-608)", "T3 construct": "also called MuSA; mouse serum albumin", "assay": "SPR, HBS-P buffer, 25 C"}, "rhesus serum albumin [5]": {"target": "T1, rhesus serum albumin", "assay": "SPR, MES buffer, pH 5.5"}, "human serum albumin [6]": {"target": "T2, human serum albumin", "assay": "SPR, MES buffer, pH 5.5"}, "rat serum albumin": {"target": "rat serum albumin (rat, UniProt P02770 25-608)", "sequence (P02770 25-608 limits assumed)": "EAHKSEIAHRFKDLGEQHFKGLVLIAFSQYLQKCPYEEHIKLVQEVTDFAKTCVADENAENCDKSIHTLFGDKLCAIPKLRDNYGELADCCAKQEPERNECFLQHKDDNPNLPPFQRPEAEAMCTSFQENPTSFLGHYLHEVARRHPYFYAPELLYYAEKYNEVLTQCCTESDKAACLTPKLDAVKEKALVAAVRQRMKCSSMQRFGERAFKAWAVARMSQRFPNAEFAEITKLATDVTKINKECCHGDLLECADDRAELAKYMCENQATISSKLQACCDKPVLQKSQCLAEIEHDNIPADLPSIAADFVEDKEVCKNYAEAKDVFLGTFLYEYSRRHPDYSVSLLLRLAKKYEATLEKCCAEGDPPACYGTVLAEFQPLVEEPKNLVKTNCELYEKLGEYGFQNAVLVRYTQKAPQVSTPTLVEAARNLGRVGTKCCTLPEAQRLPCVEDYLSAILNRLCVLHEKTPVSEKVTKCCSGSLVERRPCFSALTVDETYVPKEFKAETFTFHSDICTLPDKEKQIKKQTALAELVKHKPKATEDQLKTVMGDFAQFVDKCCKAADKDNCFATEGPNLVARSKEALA", "assay": "SPR and direct binding ELISA"}, "rhesus serum albumin [7]": {"target": "T1, rhesus serum albumin", "assay": "SPR, HBS-P buffer"}, "human serum albumin [8]": {"target": "T2, human serum albumin", "assay": "SPR, HBS-P buffer"}, "rhesus serum albumin [9]": {"target": "T1, rhesus serum albumin", "assay": "SPR, MES buffer, pH 7.4"}, "human serum albumin [10]": {"target": "T2, human serum albumin", "assay": "SPR, MES buffer, pH 7.4"}, "human IL-12": {"target": "T4, human IL-12 (human, UniProt P29459 23-219; P29460 23-328)", "T4 construct": "heterodimeric cytokine; also called recombinant human IL-12", "T4 sequence (looked up) 1": "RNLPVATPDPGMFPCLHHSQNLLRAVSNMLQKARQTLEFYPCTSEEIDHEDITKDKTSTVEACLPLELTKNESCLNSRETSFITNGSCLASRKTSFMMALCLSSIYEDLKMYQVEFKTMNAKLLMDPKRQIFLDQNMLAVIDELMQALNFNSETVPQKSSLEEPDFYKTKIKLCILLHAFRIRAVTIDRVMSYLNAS", "T4 sequence (looked up) 2": "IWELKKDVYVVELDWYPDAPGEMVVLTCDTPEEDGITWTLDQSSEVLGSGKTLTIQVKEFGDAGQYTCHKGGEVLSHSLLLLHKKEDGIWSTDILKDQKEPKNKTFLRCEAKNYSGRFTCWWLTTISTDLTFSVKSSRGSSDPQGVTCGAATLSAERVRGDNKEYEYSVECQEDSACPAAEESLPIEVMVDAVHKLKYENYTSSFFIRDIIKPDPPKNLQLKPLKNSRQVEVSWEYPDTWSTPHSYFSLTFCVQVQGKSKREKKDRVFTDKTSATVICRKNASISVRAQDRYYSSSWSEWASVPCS", "assay": "SPR, Adnectin captured on immobilized anti-His antibody", "description": "Adnectins listed in Table 2 as well as ATI001016 were used to examine the biochemical selectivity towards IL-23/IL-12. The binding analysis involved the capture of anti-IL-23 Adnectins on immobilized anti-His antibody followed by flow of IL-23 or IL-12 over the Adnectin. The selectivity of the Adnectins for IL-23 was assessed by comparing the binding signal for a 100 fold higher concentration of IL-12 over IL-23."}, "human IL-23 [11]": {"target": "T5, human IL-23 (human, UniProt Q9NPF7 20-189; P29460 23-328)", "T5 construct": "also called hIL-23; human recombinant IL-23", "T5 sequence (looked up) 1": "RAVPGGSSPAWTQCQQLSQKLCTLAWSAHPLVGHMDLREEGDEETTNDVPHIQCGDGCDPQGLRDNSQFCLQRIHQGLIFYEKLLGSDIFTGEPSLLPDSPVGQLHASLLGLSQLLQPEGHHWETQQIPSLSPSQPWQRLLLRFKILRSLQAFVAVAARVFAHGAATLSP", "T5 sequence (looked up) 2": "T4 sequence (looked up) 2", "assay": "KinExA, solution phase, adnectin titrated, unbound IL-23 captured on non-PEGylated ATI001045 matrix", "description": "The solution affinity of ATI001045 and ATI001047 for human IL-23 was also measured using an alternate format in the KinExA. Duplicate titrations of adnectins were performed for each of three (ATI001045) or single (ATI001047) concentrations of human IL-23 (quadruplicate for the lowest concentration). The relative unbound human IL-23 concentration was measured by capture on a non-PEGylated ATI001045 solid matrix followed by detection with a fluorescently labeled antibody that recognizes the p40 subunit of hIL-23."}, "human IL-23 [12]": {"target": "T5, human IL-23", "assay": "SPR (ProteOn XPR), human IL-23 directly immobilized, 25 C", "description": "(§1) The binding characteristics were characterized by Surface Plasmon Resonance (SPR). Human IL-23 was immobilized at two to four levels in one dimension of a ProteOn XPR (Bio-Rad) chip surfaces and exposed to 6 different concentrations of anti-IL-23 adnectins in the other dimension of the same SPR chip surface. This allowed kinetic determination in the absence of regeneration. Duplicate chips were used for kinetic determinations at 25° C. and 37° C. Evaluation of the kinetic parameters was performed using the Langmuir interaction model and constant parameter fitting with the ProteOn Manager software.\n(§2) Even at 37° C. the off rates were close to the limit of detection for SPR technologies so it is possible that the reported dissociation constant measurements are under-estimates."}, "human IL-23 [13]": {"target": "T5, human IL-23", "assay": "SPR (ProteOn XPR), human IL-23 directly immobilized, 37 C", "description": "as §1, §2"}, "human IL-23 [14]": {"target": "T5, human IL-23", "assay": "KinExA, solution phase, hIL-23 titrated, unbound ATI001045 captured on IL-23 matrix", "description": "The solution affinity of ATI001045 for human IL-23 was measured using a Kinetic Exclusion Assay (KinExA). In one format duplicate titrations of hIL-23 were performed for each of three concentrations. The relative unbound ATI001045 concentration was measured by capture on a human IL-23 solid matrix followed by detection with a fluorescently labeled antibody that recognizes the Adnectin scaffold. Due to technical limitations, the lowest concentration that could be tested was 0.75 nM."}, "human IL-23 [15]": {"target": "T5, human IL-23", "assay": "cell-based or functional assay"}}, "note": "Where a chain is given by its changes, count along the chain named.", "data": [{"binder": "B1", "values": [{"measurement": "Kd", "setting": "rhesus serum albumin [1]", "value": 977, "unit": "nM"}, {"measurement": "koff", "setting": "rhesus serum albumin [1]", "value": 0.0185, "unit": "s⁻¹"}, {"measurement": "kon", "setting": "rhesus serum albumin [1]", "value": 18900, "unit": "M⁻¹ s⁻¹"}, {"measurement": "Kd", "setting": "human serum albumin [2]", "value": 24.1, "unit": "nM"}, {"measurement": "koff", "setting": "human serum albumin [2]", "value": 0.000815, "unit": "s⁻¹"}, {"measurement": "kon", "setting": "human serum albumin [2]", "value": 33800, "unit": "M⁻¹ s⁻¹"}, {"measurement": "Kd", "setting": "rhesus serum albumin [3]", "value": 580, "unit": "nM"}, {"measurement": "koff", "setting": "rhesus serum albumin [3]", "value": 0.00378, "unit": "s⁻¹"}, {"measurement": "kon", "setting": "rhesus serum albumin [3]", "value": 6600, "unit": "M⁻¹ s⁻¹"}, {"measurement": "Kd", "setting": "human serum albumin [4]", "value": 55.3, "unit": "nM"}, {"measurement": "koff", "setting": "human serum albumin [4]", "value": 0.000443, "unit": "s⁻¹"}, {"measurement": "kon", "setting": "human serum albumin [4]", "value": 8210, "unit": "M⁻¹ s⁻¹"}, {"measurement": "binding result", "setting": "murine serum albumin", "value": "no binding (tested: up to 1 µM)"}, {"measurement": "Kd", "setting": "rhesus serum albumin [5]", "value": 359, "unit": "nM"}, {"measurement": "koff", "setting": "rhesus serum albumin [5]", "value": 0.00272, "unit": "s⁻¹"}, {"measurement": "kon", "setting": "rhesus serum albumin [5]", "value": 7570, "unit": "M⁻¹ s⁻¹"}, {"measurement": "Kd", "setting": "human serum albumin [6]", "value": 28.6, "unit": "nM"}, {"measurement": "koff", "setting": "human serum albumin [6]", "value": 0.00027, "unit": "s⁻¹"}, {"measurement": "kon", "setting": "human serum albumin [6]", "value": 9440, "unit": "M⁻¹ s⁻¹"}, {"measurement": "binding result", "setting": "rat serum albumin", "value": "no binding (tested: 1 µM)"}, {"measurement": "affinity at 37 C relative to 25 C", "setting": "rhesus serum albumin [7]", "value": 0.5, "unit": "fold"}, {"measurement": "fold increase in affinity at 37 C against 25 C", "setting": "human serum albumin [8]", "value": "~2", "unit": "fold"}, {"measurement": "Kd", "setting": "rhesus serum albumin [9]", "value": 479, "unit": "nM"}, {"measurement": "koff", "setting": "rhesus serum albumin [9]", "value": 0.00295, "unit": "s⁻¹"}, {"measurement": "kon", "setting": "rhesus serum albumin [9]", "value": 6160, "unit": "M⁻¹ s⁻¹"}, {"measurement": "Kd", "setting": "human serum albumin [10]", "value": 41.9, "unit": "nM"}, {"measurement": "koff", "setting": "human serum albumin [10]", "value": 0.000388, "unit": "s⁻¹"}, {"measurement": "kon", "setting": "human serum albumin [10]", "value": 9260, "unit": "M⁻¹ s⁻¹"}]}, {"binder": "B2", "values": [{"measurement": "binding result", "setting": "human IL-12", "value": "no binding (tested: 1 µM)"}]}, {"binder": "B3", "values": [{"measurement": "Kd", "setting": "human IL-23 [11]", "value": 0.0363, "unit": "nM"}, {"measurement": "Kd", "setting": "human IL-23 [12]", "value": 1.6, "unit": "nM"}, {"measurement": "koff", "setting": "human IL-23 [12]", "value": "2e-05", "unit": "s⁻¹"}, {"measurement": "kon", "setting": "human IL-23 [12]", "value": 13000, "unit": "M⁻¹ s⁻¹"}]}, {"binder": "B4", "values": [{"measurement": "Kd", "setting": "human IL-23 [13]", "value": 0.27, "unit": "nM"}, {"measurement": "koff", "setting": "human IL-23 [13]", "value": "5.5e-05", "unit": "s⁻¹"}, {"measurement": "kon", "setting": "human IL-23 [13]", "value": 203000, "unit": "M⁻¹ s⁻¹"}, {"measurement": "Kd", "setting": "human IL-23 [14]", "value": 0.051, "unit": "nM"}, {"measurement": "Kd", "setting": "human IL-23 [11]", "value": 0.0094, "unit": "nM"}, {"measurement": "Kd", "setting": "human IL-23 [12]", "value": 0.17, "unit": "nM"}, {"measurement": "koff", "setting": "human IL-23 [12]", "value": "2.5e-05", "unit": "s⁻¹"}, {"measurement": "kon", "setting": "human IL-23 [12]", "value": 150000, "unit": "M⁻¹ s⁻¹"}, {"measurement": "IL-17 production by human T cells, EC50", "setting": "human IL-23 [15]", "value": 2, "unit": "nM"}]}]}
